Here are results for ten molecules from PMC3828196 (PLoS ONE, 2013).

Data set [1] has as its target KpDsbA. Description: ITC binding of DsbB-derived peptides to KpDsbA. Further details: species or system K. pneumoniae. As for the experimental part:
Amidation and acetylation ensure that there are no charges on the peptide termini, as these are not present in the native DsbB loop sequence. Binding affinity was measured using a MicroCal™ Auto-iTC200 from (GE Healthcare, USA) at 25 °C. The sample cell was loaded with 200 μL of 100 μM KpDsbA or EcDsbA in 25 mM HEPES, 50 mM NaCl, pH 7.4, and DMSO 0.8 %. The peptide (3 mM) diluted in the same buffer was titrated with an initial injection of 0.5 μL into DsbA, followed by 19 consecutive injections (2.0 μL) offset by 180 s, while the solution was constantly stirred (1000 rpm). Data were fitted to a single-site binding model using MicroCal™ Origin 7.0 software (Origin 7 SR4 v7.0552). Experiments were conducted in triplicate and affinity and thermodynamic parameters are reported as means and standard deviations (Table 4).

Data set [2] addresses Cys30 (UniProt position 49, FFSFFCPHCYQ). The following applies: not stated; cited from earlier work.
Data set [3] concerns the target Klebsiella pneumoniae DsbA (K. pneumoniae). The data set is described as follows: ITC; peptide (3 mM) titrated into 100 μM DsbA in the cell; 25 mM HEPES, 50 mM NaCl, pH 7.4, DMSO 0.8 %; 25 °C by the methods (20 °C by the footnote of Table 4); single-site binding model; apparent Kd; triplicate. On the technique in general: Isothermal titration calorimetry measures the heat released or taken up as one component is titrated into another.

Data set [4] concerns the target T1, Cys30 (UniProt position 49, FFSFYCPHCYQ). Particulars: not stated; cited from earlier work.
Data set [5] has as its target T1, Cys30. Description: UV-vis. The following applies: 22 °C; 200 mM KCl plus buffer salts (total ionic strength not stated); 10 mM Tris, 10 mM sodium citrate, 10 mM K2HPO4, 10 mM KH2PO4, 200 mM KCl, 1 mM EDTA; Reduced KpDsbA (40 μM), with oxidised KpDsbA as reference.
Data set [6] concerns the target Cys30 (UniProt position 49, FFSFYCPHCNT). Particulars: not stated; cited from earlier work.
Data set [7] has as its target T2, Escherichia coli DsbA (E. coli, UniProt P0AEG4 20-208).
T2 construct: also called EcDsbA; E. coli DsbA; source: purified as described for KpDsbA (BL21(DE3)pLys, Talon resin, TEV protease, Superdex75)
T2 sequence (looked up): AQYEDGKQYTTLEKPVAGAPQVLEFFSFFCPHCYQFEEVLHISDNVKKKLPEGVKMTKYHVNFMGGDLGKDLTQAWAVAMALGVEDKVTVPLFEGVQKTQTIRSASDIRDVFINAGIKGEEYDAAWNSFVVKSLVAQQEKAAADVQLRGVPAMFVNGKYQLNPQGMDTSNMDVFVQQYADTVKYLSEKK
The data set is described as follows: ITC; peptide (3 mM) titrated into 100 μM DsbA in the cell; 25 mM HEPES, 50 mM NaCl, pH 7.4, DMSO 0.8 %; 25 °C by the methods (20 °C by the footnote of Table 4); single-site binding model; apparent Kd; triplicate. The following applies: both partners purified.

Data set [8] deals with insulin. Description: Insulin disulfide reductase activity. The data set is classed as biochemical. Particulars: 10 μM enzyme, 0.33 mM DTT, 2 mM EDTA, 100 mM phosphate pH 7.0, 0.131 mM insulin; OD650nm turbidity; three repeats. As for the experimental part: Under mild reducing conditions, DsbA proteins can reduce the intermolecular disulfide bonds formed between insulin chains A and B [3]. The rate of disulfide bond reduction can be spectroscopically followed at OD650nm by an increase in turbidity resulting from production of the insoluble insulin chain B [20]. Samples were prepared in 1 cm cuvettes containing 10 μM of protein (KpDsbA, EcDsbA or EcDsbC), 0.33 mM DTT and 2 mM EDTA in 100 mM NaH2PO4 / Na2HPO4 titrated to pH 7.0. Catalysis was initiated by the addition of 0.131 mM insulin (I0516, Sigma-Aldrich, Australia) to the sample mixture. The assay was repeated three times and data were plotted showing standard deviations.

Data set [9] in a line: Temperature-induced unfolding by far-UV CD. It is filed as physicochemical. As to the method:
Temperature-induced unfolding of native SeDsbA and KpDsbA was determined as described previously using a Jasco J-810 circular dichroism (CD) spectropolarimeter (Jasco, USA). The redox state of the protein was confirmed using Ellman’s reagent. The largest difference in molar ellipticity for oxidized or reduced enzymes was calculated from initial far-UV CD spectra (from 250 nm to 190 nm) recorded at 25 °C and 95 °C, respectively. The unfolding of oxidized and reduced protein (SeDsbAox = 220 nm, SeDsbAred = 220.5 nm and KpDsbAox = 211 nm, KpDsbAred = 209.5 nm) was monitored at a heat rate of 1 K / min from 298 K to 368 K in a 1 mm quartz cuvette. All measurements were carried out with 10 µM protein in 100 mM NaH2PO4 / Na2HPO4, 1 mM EDTA at pH 7.0. Samples for measurement of reduced enzyme contained 0.75 mM DTT. Raw data were analyzed in Prism and fitted to a two-state unfolding model as described previously. The standard deviation was measured from three replicates.

The nature of data set [10]: In vitro peptide dithiol oxidation (europium fluorescence). It is filed as biochemical. Particulars: pH 5.5. As to the method: A peptide ([…]) with a 1,4,7,10-tetraazacyclododecane-1,4,7,10-tetraacetic acid (DOTA) group amide-coupled to the N-terminus, and a methylcoumarin amide-coupled to the ε-amino group of the C-terminal lysine, was purchased from AnaSpec (Fremont, CA). Lyophilized peptide was re-suspended in 100 mM imidazole, pH 6, at a concentration of 2 mM. Europium trifluoromethanesulfonate (Sigma Aldrich, Australia) solution (100 mM) was added to the peptide at a molar ratio of 2:1 and incubated for 5 min at room temperature, to allow europium chelation. The peptide solution was then immediately aliquoted, flash frozen in liquid nitrogen and stored at -80°C. An increase in fluorescence occurs upon oxidation of the peptide cysteines to form a disulfide. Thus, fluorescence can be used to monitor the capacity of DsbA enzymes to catalyse dithiol oxidation.
Assays were conducted using a Synergy H1 multimode plate reader (BioTek, USA) with the excitation wavelength set to 340 nm and emission to 615 nm. A 150 μs delay before reading and 100 μs reading time were used for time-resolved fluorescence. The assay was performed in a white 384-well plate (Perkin Elmer OptiPlate-384, Part #: 6007290). The buffer consisted of 50 mM MES, 50 mM NaCl and 2 mM EDTA at pH 5.5. The reaction consisted of a 50 μL solution in each well, containing 160 nM EcDsbA, KpDsbA or SeDsbA, 1.6 μM EcDsbB (crude membrane extracts, containing ubiquinone) and 8 μM peptide substrate added last to initiate the reaction. Samples containing buffer and DsbA or buffer and peptide were used as controls. Data were measured for three replicates and are presented as mean values, with the standard error of the mean indicated by error bars.

The conditions of data set [11]: SeDsbA, cited from earlier work. An excerpt: The past 5 years has seen the characterization of DsbA enzymes from many other bacteria including DsbAs with varying degrees of sequence identity to EcDsbA such as Neisseria meningitidis DsbA1 (NmDsbA1, 23% identity), Pseudomonas aerugin ... || EcDsbA and SeDsbA share 86 % sequence identity and both have been characterized previously. […] Both are similarly oxidizing enzymes: the redox potentials of EcDsbA and SeDsbA are -122 and -126 mV, respectively, whereas the range for all DsbAs is -80 to -163 mV (Table 1 ). In b ... || (+ 1 further places)

Data set [12] concerns insulin. The following applies: cited from earlier work.
The subject of data set [13] is E. coli dsbA- null (JCB817). The following applies: SeDsbA, null mutant motility assay; ref [44]; cited from earlier work.

As usually defined, the pKa is the negative logarithm of the acid dissociation constant. In general, stoichiometry N refers to the number of molecules, sites or subunits per partner or assembly.

Where “and” joins values, the source holds several entries; their conditions need not be identical. Equal values may be shown once. Entries after “also recorded” stand apart in the source; their conditions may differ. Read-outs that look alike come from different tables or passages of the source.

Regarding `CC(=O)N1CCC[C@H]1C(=O)N[C@@H](CO)C(=O)N1CCC[C@H]1C(=O)N[C@@H](Cc1ccccc1)C(=O)N[C@@H](C)C(=O)N[C@H](C(=O)N[C@@H](CS)C(=O)N[C@@H](CC(=O)O)C(N)=O)[C@@H](C)O`, the Kd in data set [1] (ITC (Auto-iTC200), cell 100 μM KpDsbA, peptide 3 mM, 25 mM HEPES, 50 mM NaCl, pH 7.4, DMSO 0.8 %, 25 °C in method, 20 °C in table footnote, single-site model, apparent Kd, mean ± SD, three independent experiments, read-out: Kd) is 17.9 ± 1.5 µM; in data set [1] (ITC, range stated for KpDsbA and EcDsbA with PSPFATCD and PSPFQTCD together, read-out: Kd (range over both peptides and both DsbAs)), 11 to 18 µM.

For the molecule DsbA (EcDsbA) (Escherichia coli (K-12)), the pKa in [2] is given as 3.3.

Consider EcDsbB P2 loop peptide PSPFATCD, for which, in [3], the Kd came to 17.9 µM, the dH was -9.5 kcal/mol and the stoichiometry N stood at 0.93.

Consider “DsbA (SeDsbA) (Salmonella enterica serovar Typhimurium (strain SL1344))”, for which the pKa in data set [4] was 3.3.

Turning to KpDsbB P2 loop peptide PSPFQTCD, in [3], the Kd came to 16.7 µM, the dH is -11.1 kcal/mol and the stoichiometry N was determined as 0.97.

For “DsbA (thiol:disulfide interchange protein DsbA), KpDsbA (Klebsiella pneumoniae (strain 342))”, the pKa in [5] was found to be 3.2.

With DsbA (VcDsbA, TcpG) (Vibrio cholerae), in data set [6], the pKa is 5.1.

B1: KpDsbB P2 loop peptide PSPFQTCD (peptide)
peptide: Ac-PSPFQTCD-NH2
notes: P2 loop of K. pneumoniae DsbB; source: synthetic peptide
With B1, in data set [7], the Kd was 10.9 µM.

B2: EcDsbC: E. coli disulfide isomerase DsbC (AAA83074) (protein, UniProt P0AEG6 21-236, looked up)
Thiol:disulfide interchange …: DDAAIQQTLAKMGIKSSDIQPAPVAGMKTVLTNSGVLYITDDGKHIIQGPMYDVSGTAPVNVTNKMLLKQLNALEKEMIVYKAPQEKHVITVFTDITCGYCHKLHEQMADYNALGITVRYLAFPRQGLDSDAEKEMKAIWCAKDKNKAFDDVMAGKSVAPASCDVDIADHYALGVQLGVSGTPAVVLSNGTLVPGYQPPKEMKEFLDEHQKMTSGK
Take B2: in data set [8], the “insulin disulfide reductase activity” value was “highly active”.

B3: SeDsbA: S. enterica Typhimurium DsbA (AAB81592) (protein)
chain: AQISDGKQYITLDKPVAGEPQVLEFFSFYCPHCYQFEEVLHVSDNVKKKLPEGTKMTKYHVEFLGPLGKELTQAWAVAMALGVEDKVTVPLFEAVQKTQTVQSAADIRKVFVDAGVKGEDYDAAWNSFVVKSLVAQQEKAAADLQLQGVPAMFVNGKYQINPQGMDTSSMDVFVQQYADTVKYLVDKK
modifications: left off: His6 (inferred: purified as described for KpDsbA), N-terminal, cleaved
On to B3, for which the Tm reduced in [9] (10 µM protein, 100 mM phosphate, 1 mM EDTA, pH 7.0, 0.75 mM DTT, 1 K/min 298-368 K, SeDsbA 220.5 nm, KpDsbA 209.5 nm, two-state fit, SD from three replicates) is 351 K and 351.2 ± 0.2 K and 351.2 +/- 0.2 K. Besides, the Tm oxidized in data set [9] (10 µM protein, 100 mM phosphate, 1 mM EDTA, pH 7.0, 1 K/min 298-368 K, SeDsbA 220 nm, KpDsbA 211 nm, two-state fit, SD from three replicates) was 342.8 ± 0.4 K and 342.8 +/- 0.4 K and 343 K. For the same molecule, in [9] (SeDsbA, difference of melting temperatures), the “stabilisation of reduced over oxidized form” value was determined as 9 K. For the same molecule, in data set [10] (samples lacking EcDsbB, DsbA plus peptide, time-resolved fluorescence), the “dithiol oxidation signal without EcDsbB” value is listed as “no increase in signal”. In data set [10] (with EcDsbB, 160 nM DsbA, 1.6 μM EcDsbB membrane extract, 8 μM peptide, 50 mM MES, 50 mM NaCl, 2 mM EDTA, time-resolved fluorescence 340/615 nm, three replicates), the “rate of catalyzed disulfide bond formation” value is recorded as “almost indistinguishable from that of EcDsbA”. The “E°’ (redox potential)” value in [11] (Table 1, ref [43] and [14]) is on record as -126 mV. For the same molecule, the “pKa “Cys30”” value in data set [11] (Table 1 and comparison, ref [43] and [14]) is reported as 3.3. Moreover, in [11] (ref [43]), the “pKa of nucleophilic cysteine” value was 3.3 and the redox potential is recorded as -126 mV. Also, the insulin reductase activity result in data set [12] is “weak disulfide reductants; also recorded: weak insulin reductase activity”. The “complementation of EcDsbA, motility” value in data set [13] is “can complement EcDsbA; also recorded: can fully restore the motility of dsbA ^- deficient strains”.
